What was measured:
[1] = test system: CNC(Cc1ccc(O)c(O)c1)C(=O)O; assay: steady-state oxygen depletion, oxygen sensor; assay type: biochemical, Aspergillus fumigatus; settings: pH 7.6, 25 °C, 100 mM Tris/HCl, 150 mM NaCl, air-saturated (O2 co-substrate)
Description: (§1) steady-state oxygen depletion, oxygen sensor on FsqB

CNC(Cc1cccc(O)c1)C(=O)O = assay: steady-state oxygen depletion, oxygen sensor; assay type: biochemical, Aspergillus fumigatus; settings: pH 7.6, 25 °C, 100 mM Tris/HCl, 150 mM NaCl, air-saturated (O2 co-substrate), error ± 0.6
Description: as §1

[2] = test system: CN[C@@H](Cc1ccc(O)c(O)c1)C(=O)O; assay: steady-state oxygen depletion, oxygen sensor; assay type: biochemical, Aspergillus fumigatus; settings: pH 7.6, 25 °C, 100 mM Tris/HCl, 150 mM NaCl, air-saturated (O2 co-substrate)
Description: as §1

[3] = test system: CN[C@@H](Cc1ccc(O)cc1)C(=O)O; assay: steady-state oxygen depletion, oxygen sensor; assay type: biochemical, Aspergillus fumigatus; settings: pH 7.6, 25 °C, 100 mM Tris/HCl, 150 mM NaCl, air-saturated (O2 co-substrate)
Description: as §1

[4] = target: the molecule itself; assay: crystal structure; hexagonal crystals (P6522), one chain in the asymmetric unit; dimer with a symmetry-related molecule by a crystallographic 2-fold axis, analysed with the EBI-Pisa server; 2.6 A

Molecule: FsqB (Aspergillus fumigatus Af293)
- Km [1]: 160 ± 10 µM
- kcat [1]: 8.5 ± 0.1 s⁻¹
- kcat/Km [1]: 53000 ± 4000 M⁻¹ s⁻¹
- Km (CNC(Cc1cccc(O)c1)C(=O)O): 1600 ± 200 µM
- kcat (CNC(Cc1cccc(O)c1)C(=O)O): 3.5 ± 0.1 s⁻¹
- kcat/Km (CNC(Cc1cccc(O)c1)C(=O)O): 2180 ± 40 M⁻¹ s⁻¹
- Km [2]: 270 ± 20 µM
- kcat [2]: 8.2 ± 0.2 s⁻¹
- kcat/Km [2]: 30000 ± 3000 M⁻¹ s⁻¹
- Km [3]: 2100 ± 200 µM
- kcat [3]: 3.9 ± 0.2 s⁻¹
- kcat/Km [3]: 1910 ± 20 M⁻¹ s⁻¹

B1: FsqB (fumisoquin biosynthesis gene B product), flavoprotein of the amine oxidase family (enzyme, Aspergillus fumigatus)
chain: MSIPNSFIIVGSGVFGLSLAYALSLDDRFADKKIILVDRWNFEPPNATGSVHNPAAANADTSRVIRRDYPHGPYASLALEAMKHWRGKFGENNRYVNQRLLFSGEGSSLTTPPKALETVNYIKKAYAISCELTPGGRDAVQVLDSLDEVRAFLGNTPSHPPHLPVNKDPAARDLRGYVSNDCGWADAGASIEWLRQEVLRLGRVECVVGEVESLVYSDDQRAVKGVKLVDGKVLTAELTVIAAGARSSHILGIPKLCDVYSEFVAYIQLTKEEADELRRRQWPILVNCHRGVFAVGPDHDNCLKFGHFSYSGIVDVLREASIQVPTRPDGWEAQQKYWSDPRFAFGGEVKVSALGDVDDYENPAAQRALADYRLFLLELLGPTGLQGVDTLGLDQSDNLLNNIANRPFTRVRKCWYNDTPALDFVVDYHPSYGKTLFVATGGCDHAFKFLPIIGEKTLALILRNRGDSAVSLPAGVEPSLEELSELWRFPVELLQDN
modifications: FAD covalently bound through its 8alpha-methyl group to Cys-414
notes: FsqB of Aspergillus fumigatus, gene Afu6g03440, codon-optimized synthetic gene in pET21a; the domains described in the structure span residues 1-496; Molecular mass printed as 55 kDa; Dimer generated by a crystallographic 2-fold axis; one chain in the asymmetric unit; also called WT FsqB; Afu6g03440
- binding result [4]: binds

— paper PMC6222107 (The Journal of Biological Chemistry, 2018)
